The values that follow come from US20150307616A1 (APEXIGEN, published 2015).

Assay [1] has as its target T1, human CD40 on the cell surface (human, UniProt P25942 21-277). The experiment in a line: cell-based or functional assay.
Assay [2] has as its target T1, human CD40 on the cell surface. The experiment in a line: cell-based or functional assay. The source holds these as a separate data set.

T1 sequence (P25942 21-277): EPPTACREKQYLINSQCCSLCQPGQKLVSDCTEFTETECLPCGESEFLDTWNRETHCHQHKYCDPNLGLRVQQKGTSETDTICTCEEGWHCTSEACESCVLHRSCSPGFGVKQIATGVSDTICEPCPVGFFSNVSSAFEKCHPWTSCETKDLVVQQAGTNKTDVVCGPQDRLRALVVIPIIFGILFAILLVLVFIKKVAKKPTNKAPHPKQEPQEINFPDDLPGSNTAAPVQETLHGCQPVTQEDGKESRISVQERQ

B1: R-6 rabbit anti-CD40 antibody (antibody, V domains shown)
VH: GGSLTLTGTASGFSFSSSYSMCWVRQAPGKGLEWIGCIDTGRGYTYHASGAKGRFTFSKTSSTTVTLQMTSLTAADTATYFCARSSYVRYDNRNYGFNLWGPGTLVTVSS
VL: DIVMTQTPASVEAAVGGTITINCQASESISSWLSWYQQKPGQRPKLLIYYTSNLASGVPSRFKGSGAGTDFTLTISDLECADAATYYCQSNYGSSSSTYYGFGGGTEVVVK
For the molecule B1, in assay [1], the “CD83 expression on human monocyte-derived DC (DC maturation assay)” value (from here on “CD83 expression”) was more than 50%.

B2: 19-45 rabbit anti-CD40 antibody (antibody, V domains shown)
VH: QSVEESGGRLVTPGTPLTLNCTVSGFSLSSYDMNWVRQAPGKGLEWIGVIWNNGEIFYASWAKGRFTISKTSTTVDLKITSPSTEDTATYFCAGDADGGVVSYFHVWGPGTLVTVSS
VL: AYDMTQTPASVEVAVGGTVTIKCQASQTIYTYLAWYLQKPGQPPKLLIYEASKLASGVSSRFEGSGSGTQFTLTISGVQCDDAATYYCQQGYNSRHVDNVFGGGTEVVVK
For the molecule B2, the “CD83 expression” value in assay [1] was more than 50%.

B3: cR-33 chimeric anti-CD40 antibody (antibody, V domains shown)
VH: QSLEESGGDLVKPGASLTLTCTASGFSFSSSYWICWVRQAPGKGLEWIACINTGSSVTTVYARWAKGRFTISKASSTTVTLQMTSLTAADTATYFCARYIIPGYNFNLWGPGTLVTVSS
VL: AYDMTQTPASVEVAVGGTVTINCQASQSISSYLYWYQQKPGQPPKLLIYDASKLASGVPSRFKGSGSGTQFTLTITGVECADAATYYCQQGYSHINVDNIFGGGTEVVVK
On to B3, for which, in assay [2], the “ADCC (% cytotoxicity of Ramos cell at 1 µg/ml)” value amounted to 29% and the “Pro-apoptosis activity (IC50)” value is 0.9 mg/L.

B4: R-33 rabbit anti-CD40 antibody (antibody, V domains shown)
VH: QSLEESGGDLVKPGASLTLTCTASGFSFSSSYWICWVRQAPGKGLEWIACINTGSSVTTVYARWAKGRFTISKASSTTVTLQMTSLTAADTATYFCARYIIPGYNFNLWGPGTLVTVSS
VL: AYDMTQTPASVEVAVGGTVTINCQASQSISSYLYWYQQKPGQPPKLLIYDASKLASGVPSRFKGSGSGTQFTLTITGVECADAATYYCQQGYSHINVDNIFGGGTEVVVK
For the molecule B4, the “CD83 expression” value in assay [1] was more than 50%.

B5: R-16 rabbit anti-CD40 antibody (antibody, V domains shown)
VH: QSLEESGGGLVKPGGTLTLTCKASGFSLNYYWPCWVRQAPGKGLEWVACLNGGDSDTTVYARWAKGRFTISKASSTTVTLQMTSLTAADTATYFCARYIIPGYHFNLWGPGTLVTVSS
VL: AYDMTQTPASVSAAVGDTVTIKCQASQSISSYLYWYQQKPGQPPKLLIYQASKLASGVPSRFKGSGSGTEYTLTISDLECADVATYYCQQGYSHINVDNIFGGGFQVVVK
B5: the “CD83 expression” value in assay [1] is more than 50%.

B6: R-3 rabbit anti-CD40 antibody (antibody, V domains shown)
VH: QSLEESGGDLVKPGASLTLTCTASGFSFSDSFWIAWVRQAPGKGLEWIGCIHALSSGSTYYANWARGRFTISKTSSTTVTLQMNSLTAADTATYFCARSYAGYADYNVATGLNLWGPGTLVTVSS
VL: DVVMTQTPSSASAAVGGTVTTKCQASQSIGSYLAWYQQKPGQRPKLLIYAASNLASGVPSRFKGSRSGTEYTLTISGVQREDAATYYCLGSFTGSDTTFGGGTELEIL
With B6, in assay [1], the “CD83 expression” value is more than 50%.

B7: cR-3 chimeric anti-CD40 antibody (antibody, V domains shown)
VH: QSLEESGGDLVKPGASLTLTCTASGFSFSDSFWIAWVRQAPGKGLEWIGCIHALSSGSTYYANWARGRFTISKTSSTTVTLQMNSLTAADTATYFCARSYAGYADYNVATGLNLWGPGTLVTVSS
VL: DVVMTQTPSSASAAVGGTVTTKCQASQSIGSYLAWYQQKPGQRPKLLIYAASNLASGVPSRFKGSRSGTEYTLTISGVQREDAATYYCLGSFTGSDTTFGGGTELEIL
For the molecule B7, in assay [2], the “ADCC (% cytotoxicity of Ramos cell at 1 µg/ml)” value is 30% and the “Pro-apoptosis activity (IC50)” value came to 0.57 mg/L.

B8: R-18 rabbit anti-CD40 antibody (antibody, V domains shown)
VH: QSLEESGGDLVKPGASLTLTCTASGIDFSSYYYMCWVRQAPGKGLEWIGCIYAGSGSTYYASWAKGRFTISKTSSTTVTLQMTSLTAADTATYFCARSGYNDGSYYNLWGPGTLVTVSS
VL: DIVMTQTPSSVEAAVGGTVTIKCQASQSIYTWLAWYQQKPGQPPKLLIYKASTLASGVPSRFKGSGSGTDYTLTISDLECDDAATYYCQRYSWNGSYGVSFGGGTEVVVR
As for B8, in assay [1], the “CD83 expression” value was more than 50%.

B9: 19-59 rabbit anti-CD40 antibody (antibody, V domains shown)
VH: QSVEESGGRLVTPGTPLTLTCTVSGFSLSDYVMRWVRQAPGKGLEWIGVISSAGNTYYATWAKDRFTISKTSTTVDLRIASPTTEDTATYFCARIWRPDDPTNSDIWGPGTLVTVSS
VL: DVVMTQTPSSTSAAVGGTVTIKCQASESISSSLAWYQQKPGQPPKLLIYYASDLASGVPSRFSGSRSGTEYTLTISGVQREDAATYYCLGGYATAAYRTAFGGGTELEIL
With B9, the “CD83 expression” value in assay [1] is more than 50%.

B10: R-24 rabbit anti-CD40 antibody (antibody, V domains shown)
VH: QSLEESGGDLVKPGASLTLTCTASGFSFSRGYYICWVRQAPGKGLEWIACIGAGSGGTYFASWAKGRFSISRTSSTTVTLQMTSLTAADTATYFCAREDAGNDDYGYARNLWGPGTLVTVSS
VL: DIVMTQTPASVSAAVGGTVTINCQASESAYTLLAWYQQKPGQPPKLLIYGASILESGVPSRFKGSGSGTDFTLTISDLECADAATYYCQSHYFGSSSGYANTFGGGTEVVVK
For B10, in assay [1], the “CD83 expression” value is more than 50%.

B11: R-36 rabbit anti-CD40 antibody (antibody, V domains shown)
VH: QQQLVESGGGLVKPGASLTLTCKASGFSFSSTYWICWVRQAPGKGLEWIGCINSDDSGTNVYANWAKGRFTISKASSTTVTLQMTSLTAADTATYFCARYPIPGYHFNLWGPGTLVTVSS
VL: AYDMTQTPASVEVAVGGTVTIKCQASQNIYGYLFWYQQKPGQPPNLLIAEASKLPSGVPSRFKGSGSGTEYSLTISGVECADAATYYCQQSYSHINVDNIFGGGTEVVVK
On to B11, for which the “CD83 expression” value in assay [1] is more than 50%.

B12: 19-21 rabbit anti-CD40 antibody (antibody, V domains shown)
VH: QSLEESGGRLVTPGTPLTLTCTVSGFDLSSNAMNWVRQAPGKGLEWIGYITISGSAGYASWAKGRFTISKTSTTVDLKISSPTTEDTATYFCARGYNTMAIWGPGTLVTVSS
VL: AQVLTQTPSPVSAPVGGTVTINCQSSQNVLINNRLAWYQQKPGQPPKLLIYDASKLASGVPSRFKGSGSGTQFTLTISGVQCDDAATYYCQAGYSSGDGNAFGGGTEVVVK
As for B12, the “CD83 expression” value in assay [1] was more than 50%.

B13: c19-21 chimeric anti-CD40 antibody (antibody, V domains shown)
VH: QSLEESGGRLVTPGTPLTLTCTVSGFDLSSNAMNWVRQAPGKGLEWIGYITISGSAGYASWAKGRFTISKTSTTVDLKISSPTTEDTATYFCARGYNTMAIWGPGTLVTVSS
VL: AQVLTQTPSPVSAPVGGTVTINCQSSQNVLINNRLAWYQQKPGQPPKLLIYDASKLASGVPSRFKGSGSGTQFTLTISGVQCDDAATYYCQAGYSSGDGNAFGGGTEVVVK
On to B13, for which, in assay [2], the “ADCC (% cytotoxicity of Ramos cell at 1 µg/ml)” value worked out at 26% and the “Pro-apoptosis activity (IC50)” value was 0.02 mg/L.

B14: cR-8 chimeric anti-CD40 antibody (antibody, V domains shown)
VH: QSLEESGGDLVKPGASLTLTCTASGFSFSSTYVCWVRQAPGKGLEWIACIYTGDGTNYSASWAKGRFTISKPSSTTVTLQMTSLTPADTATYFCARPDITYGFAINFWGPGTLVTVSS
VL: DIVMTQTPSSASEPVGGTVTIKCQASQSISSRLAWYQQKPGQPPKLLIYRASTLASGVPSRFKGSGSGTEFTLTISDLECADAATYYCQCTGYGISWPIGGGTEVVVK
Consider B14, for which, in assay [2], the “ADCC (% cytotoxicity of Ramos cell at 1 µg/ml)” value turned out to be 33% and the “Pro-apoptosis activity (IC50)” value came out at 0.45 mg/L.

B15: R-9 rabbit anti-CD40 antibody (antibody, V domains shown)
VH: QSLEESGGDLVKPGASLTLTCTASRFSFSSTYMCWVRQAPGKGLEWIACTYTGSSGGTYYASWAKGRFTISQTSSTTVTLQLTGLTPADTATYFCARPDVGFDFAINFWGPGTLVTVSS
VL: DIVMTQTPSSASEPVGGTVTIKCQASQSISSRLAWYQQKPGQPPKLLIYRASTLASGVSSRFKGSGSGTQFTLTISDLECADAATYYCQCTGYTISWPFGGGTEVVVK
For B15, the “CD83 expression” value in assay [1] is more than 50%.
